The experiment has as its target T1, angiotensin I converting enzyme (ACE) (UniProt P12821).
T1 chain: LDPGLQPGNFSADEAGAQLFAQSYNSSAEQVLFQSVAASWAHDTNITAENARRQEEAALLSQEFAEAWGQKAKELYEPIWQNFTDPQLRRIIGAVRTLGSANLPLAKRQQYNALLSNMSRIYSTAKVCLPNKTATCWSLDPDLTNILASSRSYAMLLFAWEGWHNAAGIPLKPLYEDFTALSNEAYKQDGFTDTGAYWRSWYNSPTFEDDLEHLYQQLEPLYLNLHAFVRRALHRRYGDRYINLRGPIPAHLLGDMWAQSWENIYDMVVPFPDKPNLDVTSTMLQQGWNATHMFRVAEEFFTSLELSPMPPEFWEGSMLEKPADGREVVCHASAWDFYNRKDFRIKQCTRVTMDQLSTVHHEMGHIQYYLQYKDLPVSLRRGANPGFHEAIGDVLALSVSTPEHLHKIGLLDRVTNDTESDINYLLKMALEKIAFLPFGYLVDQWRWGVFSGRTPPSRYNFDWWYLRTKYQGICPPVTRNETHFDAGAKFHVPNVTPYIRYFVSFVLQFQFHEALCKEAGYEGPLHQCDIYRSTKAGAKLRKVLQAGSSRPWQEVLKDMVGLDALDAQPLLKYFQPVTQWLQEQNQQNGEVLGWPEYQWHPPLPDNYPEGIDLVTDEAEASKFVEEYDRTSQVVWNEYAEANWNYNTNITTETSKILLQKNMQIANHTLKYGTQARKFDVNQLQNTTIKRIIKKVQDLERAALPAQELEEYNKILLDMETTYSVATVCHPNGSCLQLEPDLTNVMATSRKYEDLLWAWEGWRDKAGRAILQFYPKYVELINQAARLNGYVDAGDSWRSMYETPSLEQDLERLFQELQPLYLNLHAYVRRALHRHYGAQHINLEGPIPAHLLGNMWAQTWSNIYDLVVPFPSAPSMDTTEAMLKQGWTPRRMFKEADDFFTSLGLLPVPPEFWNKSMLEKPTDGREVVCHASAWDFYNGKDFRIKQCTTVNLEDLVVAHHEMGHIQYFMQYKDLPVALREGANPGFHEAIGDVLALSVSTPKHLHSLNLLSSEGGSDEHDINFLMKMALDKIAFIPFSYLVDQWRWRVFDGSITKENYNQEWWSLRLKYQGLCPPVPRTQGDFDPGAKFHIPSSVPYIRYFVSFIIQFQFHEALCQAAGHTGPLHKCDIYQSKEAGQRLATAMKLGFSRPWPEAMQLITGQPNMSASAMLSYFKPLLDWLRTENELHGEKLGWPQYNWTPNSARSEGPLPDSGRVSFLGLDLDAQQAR
The experiment in a line: other, ACE inhibition.
For ALNEINQFY [ALNEINQFY (CNαS2-(f81-89))], the IC50 is 219 µM.

As for FALPQY [FALPQY (CNαS2-(f174-179))], the IC50 came to 4.3 µM. Against the preceding molecule, the IC50 is about 51-fold lower.

The molecule NMAINPSK [NMAINPSK (CNαS2-(f25-32))] had a concentration for half-maximal inhibition (IC50) of 60 µM.

FALPQYLK [FALPQYLK (CNαS2-(f174-181))] displayed an IC50 of 4.3 µM.

Molecule TVY [TVY (CNαS2-(f182-184))] showed an IC50 of 15 µM.

For ALNEINQFYQK [ALNEINQFYQK (CNαS2-(f81-91))], the IC50 was 26.4 µM. This IC50 is about 1.8-fold higher than that of the molecule before.

With FPQYLQY [FPQYLQY (CNαS2-(f92-98))], it took 14 µM to reach half-maximal inhibition (IC50).

The values are drawn from patent publication US20060234942 (published 2006).
